Key:
Assay in all cases: purified protein
Format in all cases: biochemical, Pseudobacillus badius
purified protein [1] = substrate: O=C(O)C(=O)Cc1ccccc1; conditions: reductive amination, 2 M NH4Cl/NH4OH pH 9.5, 0.5 mM NADH, 30 °C
purified protein [2] = substrate: O=C(O)C(=O)CCc1ccccc1; conditions: reductive amination, 2 M NH4Cl/NH4OH pH 9.5, 0.5 mM NADH, 30 °C
purified protein [3] = substrate: NC(=O)C1=CN([C@@H]2O[C@H](COP(=O)(O)OP(=O)(O)OC[C@H]3O[C@@H](n4cnc5c(N)ncnc54)[C@H](O)[C@@H]3O)[C@@H](O)[C@H]2O)C=CC1; conditions: reductive amination, 2 M NH4Cl/NH4OH pH 9.5, 20 mM 2-OPBA, 30 °C, varied: cofactor

B1: BbPheDH (Pseudobacillus badius) (protein)
chain: SLVEKTSIIKDFTLFEKMSEHEQVVFCNDPATGLRAIIAIHDTTLGPALGGCRMQPYNSVEEALEDALRLSKGMTYKCAASDVDFGGGKAVIIGDPQKDKSPELFRAFGQFVDSLGGRFYTGTDMGTNMEDFIHAMKETNCIVGVPEAYGGGGDSSIPTAMGVLYGIKATNKMLFGKDDLGGVTYAIQGLGKVGYKVAEGLLEEGAHLFVTDINEQTLEAIQEKAKTTSGSVTVVASDEIYSQEADVFVPCAFGGVVNDETMKQFKVKAIAGSANNQLLTEDHGRHLADKGILYAPDYIVNSGGLIQVADELYEVNKERVLAKTKHIYDAILEVYQQAELDQITTMEAANRMCEQRMAARGRRNSFFTSSVKPKWDIRN
notes: His-tagged, full length, pET-28a (+), expressed in E. coli BL21 (DE3), Ni-NTA purified
B1 gave a Km (purified protein [1]) of 300 ± 40 µM, a kcat (purified protein [1]) of 115 ± 6 s⁻¹ and a kcat/Km (purified protein [1]) of 370000 ± 45000 M⁻¹ s⁻¹. It also gave a Km (purified protein [2]) of 600 ± 60 µM, a kcat (purified protein [2]) of 11 ± 1 s⁻¹ and a kcat/Km (purified protein [2]) of 17000 ± 1000 M⁻¹ s⁻¹. For the same protein, the Km (purified protein [3]) was 65 ± 3 µM, the kcat (purified protein [3]) was 8 ± 1 s⁻¹ and the kcat/Km (purified protein [3]) was 115000 ± 14000 M⁻¹ s⁻¹.
